Test results: patent EP1874358B1

What was measured:
[1] = molecular target: CEA (UniProt P06731); experiment: SE-HPLC of 125I-TF2 mixed with a 20-fold molar excess of CEA
[2] = molecular target: fusion protein containing the A3B3 domain of CEA (UniProt P06731); experiment: competitive ELISA against HRP-conjugated hMN-14 IgG (1 nM) on A3B3 fusion protein

- percent shifted to a high molecular weight species [1]: 95%
- fold avidity relative to TF1 [2]: 2 fold
Substance: TF2 (bispecific antibody)
